Results as given in a protein production outcome set (Wang et al. 2014).

Test: label from the status in PepcDB records

Sequence | protein production
MAGWGIRSITGTSKLRAAMLLVVVGLLSVSGWLQRLDWLVYDEIISRQSFQPDSDIVIVAIDEESLRTIGKWPWSRELHAGLIDRLSQIGSNVVALDLLLSEPDVDHPEADKRLKTAIFTHGNVVLPVAPAQNASGDRFSLIQPLASLQRRATLGHVDVELDRDGVARRTFLYAGIDIPAFPALGLALADKGSLPNRMRLLSRMPEADKTIVNTGNSWVRSREIMVPFAGPPGTYPRISYARLLNDDDLLDDLRGKIIIVGMTATGLQQGFLTPVSLTRHNYMSGVEWHASVVDMLRNGRSIYPVPEMVAIAVTVLWVLAVLLVVNIVPGRFRSLVLLVSLAAGIGLVTMLLGVFHIWLPPGVALIGTLAVYPLQSWQRINEFIQSQFITGSCLQAVFDSVQEGVITVDAKGNILYLNQESERILGARSEQLIGKPLEQLIGVCLIPDKQDRDVNGSGSADTRPDSRIQHCVLTLPSGDRRTIRVTHRALYDRWRIPAGAVVTISDISDTLEMKQQIARQANYDVLTMLPSRNFLLSRFGELAVSARQHGAALIVCLVSVDNFSKINDAFGYHSGDALLKMIADRLLKLVCSEDLIARWSGDEFMLVVDRPVREGQELQFARKVQETINRRFEINGQEVFISASIGIRISSQPDQVDEKSEIFLDEAVSAMRRVKRQGGNGFQFYASGQMNAWTREQLEFERDFRLAIENQDKALHVLFQPIVDVQQKRVVHNEVLVRWAHPTRGLLSPGDFIPLAERVGLIGQLGDLVLWISCRIAADLAKVGQAVDISVNVASRQLLHPDFLQKVAGVLERTGLPAGRLMLEITESAVISDLPRAAEALVRLKALGVAIALDDFGTGYSSLSLLRELPLDILKIDKSFIQGIEQDHPGDEKFDFAIARAIIALGDNLGLGVIAEGVETEKHMEFLRKHHCYLQQGYYFSRPLSTTQLMQFMGRPDSIRV | failed
MNLAKGLDVLKISSNVLGEDKVMYIPAIYTEDDATLIDTGLPGQGDLIIDALNKSNTSFDRLKNIIITHHDIDHIGNINYLREKSKNNIKVYAYKSEVSYITGEETPFKLYMLEQMVDKIDDKMLSMLNVMGLGFKSSYTKVDVSLDNHEKLNLGEEIEVIHTGGHTRGHICLYLKESKVLIAGDLLQVENGELKPVDVMHSNKQELKDAIKNISNYDIETIVFSHGGLYQRNIIETLKNLIIE | failed
MLPQILIVILSLIEGLDPYKGLLFSYYFYSFKKVKESFVVPLLSTLSYYSLGILVVFFTFSSLQSSNSTKVIVIFLVIIHILMKMFLGKLLHYTGSMRVSVYNLVKSTFLNSILQMNVILLIILAIIVNTLFVFLPVGVFIVREVTYFIVLKKNNVLVLLTKFNFDYIYSVTLLILALAVLLQS | failed
MIAAYENSKWEPVKWENDMHCAVKIQDKNQWRRGQIIRMVTDTLVEVLLYDVGVELVVNVDCLRKLEENLKTMGRLSL | not failed
MFIGGAIISFLFLFGYMWKEAHSNRIRHVTLSFPHFPDNGPPLTIFFISDIHRRSVSCRMLETVKGKADLVVIGGDLAEKGVPAARVRENVRRLQTVAPVYFVWGNNDDEVDYDLQSLLEEERVYVLKNKAEVWEHGGVPIALIGVGDVSRKEADIARALEHVPPESFRILACHNPAIIARLEDEQHISLVLSGHTHGGQIRLFSFGLYEKGGLKWHGNTALFTSNGYGTTGVPLRLGAPAETHLIKIVPGKLATEKLEHHHHHH | not failed
MSAHPLAQLETFKHTSKQWNQLREAANMSNRMEHILQAMPSGVVILNGDGIVTDANPVAVELLEQSLCGARWIDVIHTAFAPQDDDGHEVSLRNGRRVKLAITPLTPEPGQLIVLTDLTETRLLQKNLSHLQRLSALGKMVATLAHQVRTPLSAALLYAANLASPKLSDSAKVKFQQKLVDRLNELERQVNDMLLMAKGRQDELGELINLNDVIENVVANCEPIVAKHGAELTVTNASNGLMLANVNALSSAVNNLVMNSLEAGATQIQLVANEIDDQLHLNVVDNGKGLDAKMQQRVLEPFFTTKAQGTGLGLAVVQSVVRNHGGQLQLNCMPNKGCTVSLTFPQAKSATVLPLEKSHV | failed
MDRMAVAEEQILLERVRRKIEEVNASGQSQLSPIQEHISFTLLIYAPLIDDELQQAYFKCSNECFEKRRKPEVTTNCVELCRVPVAKSQQQFDSDMAKFQDRMNRSLMVCQDKFEAAKLLNMNRIDAAKDMEGCVNDAAAALLGG | failed
MAEAKSRVGRPSGDTQNRDKLILAARNLFIERPYAQVSIREIASLAGTDPGLIRYYFGSKEKLFSTMIHETAMPVLAQLHKARRETRQESPAALLQTYYSVMSKHPHFPRLMLRIAGLDQSLPENAEVTKAFYEVVNFENIAIFQRLKDKNLLKDDVDAHCAQLSFFAMMVFPFIVPENLLERVGIELTPDFLQLLAEQNTRLLQRGLMDVKDERDE | not failed
MISVTAYEWIGLFIGMIIGGLAEAWGISNPEVLIRLGKWEDRLFIGCIAIAIGAGAIVLYGLSALGVSFHWGIKPDYVIGVALGGIIFGTGIAISGYVPGTVWMALGEGRRDAIYAVLGGLLGAASWTLIYQTSFGHWLTTYLNFGQIYFGGKVGTDLKLGFIIAIVWAIIMFVIAYTLPRYRKGKSCAYLSTHKNYKLDAEEEKEYIETANFLMEGTSMPIGKNNLPEKVNYHWTVSSKLFGVTMLSVGIIIGLTVVLEMFLHQIFGESTTYSWIVAQIWLPAGYWQYSTIVVHTIGWEPFSDIGTLFGAFLASIFFTRRFQAFSNVIPPSWKERFGNSQIKRAAGAFSGAYLMLLGARMADGCASGHILSGDLQMAVSSLEFFIFVVIFLLLVAHIIYRR | failed
MEHWNKTFCLEVKGDYACFTRPEMKVERVSYDVITPSAARGIFEAIFWKPAIRWRIRKIEVLNPIKWISVRRNEVGQTASERSDGIFIETARQQRAGLFLRDVAYRLHAELEFVPPSERPDAKRPVPESLQDGRETSELRKDENPGKYYAIFERRARKGQCFNQPYLGCREFSCEFRLVDDLANEPPPISETRNLGFMLYDLDFQKNLKEPPPAFFPACLEKGVIKVPDWESEEVRK | failed
MSENQDELLHYRLSLRLGPVHARQRLGIERETEARVFGRDKRSFHLENLTNAPKLIRFCLKAVGLLRRAQANSLKLTTEHNTFVLPDLPSAFEGFRILHLTDLHVDMDEANLQAVIRQIAPLDYDLCVLTGDYRQRTWGPVDDALDGMARLRLAIHGDAYAVLGNHDSVRMVPALEDMGYRLLMNEMVPLERGDSRLYLAGVDDAHYYKVHNLHRAGDDIPAGGISLLLSHTPEIWREAAHAGYDLFLCGHTHGGQLCLPGGIPLTLDSDCPRRLGRGLWQVNGMQGYTSPGAGTSVLNVRLNCPPEVTIHTLTRGPLEHHHHHH | failed
MKLKEVTEGKVRIFVPDPTGYMVEGKFDPSWAPVFYNPKMTFNRDLSVIVVSILKPKIIVDALSATGIRGIRYYVESWKSEQLILNDKNPNATSLIQINAKNNGIENAKIYNKDANALLYEVKSDYIDIDPFGSPAPFILSSLNAATRNGIVAFTATDLSPLEGSSPTSCRRKYDAINHKLSSSKELGLRVLIGKIIREAAILEKTVYPLFSFYADYYYRLFVRVENGARKADDNINKHLKYFGECPRCGFQTFVEENCKTKCPVCGEIFSIIGPLYIGPLYSMEFLKRIMDLYSNFNYLTSFNRIQKLLNVIEKEARFKNVFYNISKLASKLKISAIPPIESILECLGDASRTHFAPTGIRTDKEYEEITKCIKSLR | failed
MMSDSPQKLGRNEWNAYMDKVKAKDREAFAFVFRFYAPKLKQFAYKHVGNEQVAMEMVQETMATVWQKAHLYDGKKSALSTWIYTIIRNLCFDLLRKQKGKELHIHSDDIWPSEYYPPDMVDHYSPEQDMLKEQVVKFLDILPKNQRDVLQAVYLEELPHQQVAELFDIPLGTVKSRLRLAVEKLRHSMHTEQL | failed
MSIDIQLFYLPLHTNNPLILNKQMKLRNVSAGIVLCLTMVSCIQDEALNVEAAIDGCSGTNIQLSTINPSSKTASIYVSKSTDLSALEIKFTLPDGASIEPVNAIANDAPPKYDFSTSQIPITPEQTLEQYQRKFRVTSESETTEAVYTITVIKSELPTNFHFENLVDGSSDYHELYEFNQQQGETLQWASGNPGFKLTGMAKSPFDYPTLQTEGYIGKGIRLETKSTGDFGEKVKMPIAAGNLFIGTFIVKDALRDAKAATKFGFPFFKHPKTLKGYYKFQPGTVYISGTDENRKPIIDPSMEGKDKGDIYAVLYEADDVEDFLDGYNSLNSNKIIALARIPSIEKTSEWKQFELPFEYKKAIDESALKEGKYKLAVVFSSSINGAEFKGSVGSTLWIDEVTIQCKEDNE | failed
SPEHGQAGRKIGEEGIVLLQNKDNVLPIDLKKARKIAVIGENAIKMMTVGGGSSSLKVKYEISPLDGLKNRVGSQAEVLYVRGYVGDPTGEYNGVQTGQDLKDDRSEDELLAEAVEVSKDADYVIFFGGLNKSNHQDCEDSDRASLGLPYAQDRVIGELAKVNKNLIVVNISGNAVAMPWVNEVPAIVQGWFLGSEAGTALASVLLGDANPSGKLPFTFPARLEDVGAHKLGEYPGNKEELAHSKNNGDTINEIYREDIFVGYRWADKEKIKPLFPFGHGLSYTTF | failed
MAADHTDVLIVGAGPTGLFAGFYVGMRGLSFRFVDPLPEPGGQLTALYPEKYIYDVAGFPKVYAKDLVKGLVEQVAPFNPVYSLGERAETLEREGDLFKVTTSQGNAYTAKAVIIAAGVGAFEPRRIGAPGEREFEGRGVYYAVKSKAEFQGKRVLIVGGGDSAVDWALNLLDTARRITLIHRRPQFRAHEASVKELMKAHEEGRLEVLTPYELRRVEGDERVRWAVVFHNQTQEELALEVDAVLILAGYITKLGPLANWGLALEKNKIKVDTTMATSIPGVYACGDIVTYPGKLPLIVLGFGEAAIAANHAAAYANPALKVNPGHSSEKAAPGT | not failed
MNAPTVFESFSPDSGGVKTQLIIRGQNFGTDTAYLKVTVNNKRAAIVGVADDVIYAIVPARADTGYVRLFVGKDDNVEEYASQTKFIYQFKRNVTTLMGRQGQSGRDDGPYAECKLQRPWFALADKDGALFFIDEGRGQNKNGALRRAQEGWVETLVQNSSGPFQSPTCLAFNPKQDTLYISNMSYGSDIKTSFNILYVTREGGFMDVKGLCKFEKAETQGLAVHPQTGEIFFCNKSGGYIYRFNGPDYEDYEPLFQINRADKIDTRMVFNPEGTALFVVVCNRHCIYKVPYNALTHTFGEPELFAGGWDESGYVNGSGVTARFDNPRQPAFDQDGNMFVPEYGRHTIRKITPTGEVSLYAGLPGQAGFTDGLPEKARFNKPECVTVYLDNSLYVADRDNHLIRRVTVELEHHHHHH | failed
QCPASVEKAIISSFSPVLNEPMLDYIDKAQVYLAAREKRKIGSLLNDTVGKHLPRLFKLYNYKHLIGLAEHEYGQIDFHISQIRTLSASNYVERFSSIKIPVLFINGEKDEYTTVEDARMFSNYIAKSSFNVVPDTGHFLDLESKAAWHHSQKTALSFLGT | not failed
LPLCDSLIIWLQTFKTASPCQDVKQLTNGVTMAQVLHQIDVAWFSESWLSRIKDDVGDNWRIKASNLKKVLHGITSYYHEFLGQQISEELIPDLNQITECADPVELGRLLQLILGCAVNCEKKQEHIKNIMTLEESVQHVVMTAIQELMSK | not failed
MADKVYEATAEAKGYNEEGVPIVLTVKAIKKDGKVVVTDIVAKHQETDKIGAVAIEKLIEEVKTKQNYNKLDSVAGATSTSAGFRRAIRNAVKDIEKQNLEHHHHHH | not failed
KPREEKRTALSKVVIRRLPPGLTKEQLEEQLRPLPAHDYFEFFAADLSLYPHLYSRAYINFRNPDDILLFRDRFDGYIFLDSKGLEYPAVVEFAPFQ | failed
SGMLERLPLCGKAFADMMGKVDVWKWCNLSEFIVYYESFTNCTEMEANVVGCYWPNPLAQGFITGIHRQFFSNCTVDRVHLEDPPDEVLIPLIVIPVVLTVAMAGLVVWRSKRTDTLL | failed
MAQHHGHLGAVYDAAGPQEVAALYDRWAETYESEMARAGYRHPAIGVALLARHLPRGARPLLDAGAGTGLLGEWLEIVGYPEVEALDISAGMLEVARAKGIYARCHNLPLGAALPFRDGAFAGIISTGVFTTGHVGAEALPELLRICRPGGVIVLTVKESLWQGGFAVSLEAAVASGLEHHHHHH | failed
